Experimental findings from patent US20150064134A1 are described below.

Among the targets are BTK(h) (human) (UniProt Q06187); CK2α2(h) (human) (UniProt P19784); FAK(h) (human) (UniProt Q05397); GRK5(h) (human) (UniProt P34947); IGF-1R(h) (human) (UniProt P08069); JNK1α1(h) (human) (UniProt P45983); MAPK1(h) (human) (UniProt P28482); MRCKα(h) (human) (UniProt Q5VT25); Met(Y1248D)(h) (human) (UniProt P08581); PAK6(h) (human) (UniProt Q9NQU5); PKCη(h) (human) (UniProt P24723); Tie2(R849W)(h) (human) (UniProt Q02763); cKit(V560G)(h) (human) (UniProt P10721); Abl(M351T)(h) (human) (UniProt P00519); Abl(T315I)(h) (human) (UniProt P00519); EGFR(T790M)(h) (human) (UniProt P00533); JAK2(h) (human) (UniProt O60674); Lck(h) (human) (UniProt P06239); PAK5(h) (human) (UniProt Q9P286); PAR-1Bα(h) (human) (UniProt Q7KZI7); c-RAF(h) (human) (UniProt P04049); CK1γ2(h) (human) (UniProt P78368); CK1γ3(h) (human) (UniProt Q9Y6M4); PAK3(h) (human) (UniProt O75914).

What all share (test): cell-based or functional assay
The next assay deals with T1, Bmx(h) (human) (UniProt P51813).
T1 sequence (looked up): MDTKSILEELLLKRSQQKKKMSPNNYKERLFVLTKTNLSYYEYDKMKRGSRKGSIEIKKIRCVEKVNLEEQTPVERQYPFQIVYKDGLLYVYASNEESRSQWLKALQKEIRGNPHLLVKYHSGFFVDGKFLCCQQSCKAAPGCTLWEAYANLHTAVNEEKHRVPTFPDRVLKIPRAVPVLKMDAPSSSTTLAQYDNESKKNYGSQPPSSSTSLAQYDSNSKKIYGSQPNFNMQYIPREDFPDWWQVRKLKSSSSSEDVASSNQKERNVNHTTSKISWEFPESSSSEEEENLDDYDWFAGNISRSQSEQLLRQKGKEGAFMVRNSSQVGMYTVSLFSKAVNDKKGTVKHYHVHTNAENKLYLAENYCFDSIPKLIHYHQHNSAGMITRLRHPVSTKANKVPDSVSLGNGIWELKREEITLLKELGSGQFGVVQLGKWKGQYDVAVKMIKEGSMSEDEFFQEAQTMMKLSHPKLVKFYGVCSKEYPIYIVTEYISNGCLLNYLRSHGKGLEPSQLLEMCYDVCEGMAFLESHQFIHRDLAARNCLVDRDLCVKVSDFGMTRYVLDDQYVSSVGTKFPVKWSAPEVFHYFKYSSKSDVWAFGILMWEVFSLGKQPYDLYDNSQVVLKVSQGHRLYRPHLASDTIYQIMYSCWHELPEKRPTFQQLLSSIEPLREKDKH

A further assay deals with T2, TAK1(h) (human) (UniProt O43318).
T2 sequence (looked up): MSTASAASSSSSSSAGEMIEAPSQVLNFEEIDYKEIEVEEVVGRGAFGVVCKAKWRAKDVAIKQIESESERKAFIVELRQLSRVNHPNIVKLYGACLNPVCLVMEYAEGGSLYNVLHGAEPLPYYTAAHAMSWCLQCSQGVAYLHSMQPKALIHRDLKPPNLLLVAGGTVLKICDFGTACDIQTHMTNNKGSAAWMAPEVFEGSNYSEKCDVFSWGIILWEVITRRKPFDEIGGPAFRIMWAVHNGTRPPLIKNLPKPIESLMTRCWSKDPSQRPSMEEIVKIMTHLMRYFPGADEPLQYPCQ

The next assay concerns the target T3, Aurora-A(h) (human) (UniProt O14965).
T3 sequence (looked up): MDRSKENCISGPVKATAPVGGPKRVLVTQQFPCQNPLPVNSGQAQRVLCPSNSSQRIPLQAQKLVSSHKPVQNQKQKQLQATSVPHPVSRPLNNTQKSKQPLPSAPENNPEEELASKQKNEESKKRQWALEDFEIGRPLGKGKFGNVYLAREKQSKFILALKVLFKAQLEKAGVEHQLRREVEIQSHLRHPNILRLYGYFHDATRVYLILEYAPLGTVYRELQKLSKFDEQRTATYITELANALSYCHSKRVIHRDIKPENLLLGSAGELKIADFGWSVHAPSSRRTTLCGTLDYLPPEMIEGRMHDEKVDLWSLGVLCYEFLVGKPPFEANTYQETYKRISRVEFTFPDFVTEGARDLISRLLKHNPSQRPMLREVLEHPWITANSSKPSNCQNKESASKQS

Sequence of cKit(V560G)(h) (human) (P10721 544-976 V560G): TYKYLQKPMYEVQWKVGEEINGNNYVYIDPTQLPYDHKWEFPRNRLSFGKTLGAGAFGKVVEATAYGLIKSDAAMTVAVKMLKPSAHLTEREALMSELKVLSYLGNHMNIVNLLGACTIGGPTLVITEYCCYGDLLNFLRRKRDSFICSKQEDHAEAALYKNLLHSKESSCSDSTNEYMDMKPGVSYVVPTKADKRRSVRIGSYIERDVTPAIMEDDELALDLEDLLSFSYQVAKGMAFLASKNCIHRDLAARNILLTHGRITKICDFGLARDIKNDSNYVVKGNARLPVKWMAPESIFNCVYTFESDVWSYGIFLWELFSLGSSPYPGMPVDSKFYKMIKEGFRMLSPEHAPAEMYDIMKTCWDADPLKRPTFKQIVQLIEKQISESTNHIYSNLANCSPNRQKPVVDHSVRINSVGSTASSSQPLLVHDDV
Sequence of Abl(M351T)(h) (human) (P00519 27-1130 M351T limits assumed): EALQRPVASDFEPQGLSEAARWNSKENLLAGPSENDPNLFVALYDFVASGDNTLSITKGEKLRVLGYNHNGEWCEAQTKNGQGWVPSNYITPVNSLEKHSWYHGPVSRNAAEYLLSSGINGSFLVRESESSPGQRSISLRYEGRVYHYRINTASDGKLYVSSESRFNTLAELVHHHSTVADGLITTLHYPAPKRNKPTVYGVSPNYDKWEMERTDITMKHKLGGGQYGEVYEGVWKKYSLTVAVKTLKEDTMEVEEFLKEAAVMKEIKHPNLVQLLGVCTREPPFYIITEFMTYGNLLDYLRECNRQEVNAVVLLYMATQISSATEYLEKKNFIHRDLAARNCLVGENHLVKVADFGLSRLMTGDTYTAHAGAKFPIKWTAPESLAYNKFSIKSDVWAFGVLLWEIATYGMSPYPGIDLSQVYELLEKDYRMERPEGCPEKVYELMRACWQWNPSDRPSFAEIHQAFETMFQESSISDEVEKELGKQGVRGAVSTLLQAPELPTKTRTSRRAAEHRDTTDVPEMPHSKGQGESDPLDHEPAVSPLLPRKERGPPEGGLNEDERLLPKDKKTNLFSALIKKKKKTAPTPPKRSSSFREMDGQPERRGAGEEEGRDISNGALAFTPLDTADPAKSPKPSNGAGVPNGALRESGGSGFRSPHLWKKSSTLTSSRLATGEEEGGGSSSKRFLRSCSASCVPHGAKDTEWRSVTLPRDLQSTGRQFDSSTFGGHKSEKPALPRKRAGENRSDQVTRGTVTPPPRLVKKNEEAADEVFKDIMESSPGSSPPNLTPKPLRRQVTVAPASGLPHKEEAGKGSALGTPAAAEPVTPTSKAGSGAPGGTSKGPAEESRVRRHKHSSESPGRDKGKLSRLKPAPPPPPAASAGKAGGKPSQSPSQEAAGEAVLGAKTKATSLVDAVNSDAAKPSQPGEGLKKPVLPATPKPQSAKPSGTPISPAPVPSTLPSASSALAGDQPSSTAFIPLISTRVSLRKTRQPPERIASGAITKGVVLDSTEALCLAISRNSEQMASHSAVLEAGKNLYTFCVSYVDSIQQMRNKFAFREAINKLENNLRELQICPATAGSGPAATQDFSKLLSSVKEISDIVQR
Sequence of Abl(T315I)(h) (human) (P00519 27-1130 T315I limits assumed): as the sequence (P00519 27-1130 M351T limits assumed) above, with T289I, T325M counted along it
Sequence of PAK3(h) (human) (O75914 other isoform, or with tags, fused parts or gaps limits assumed): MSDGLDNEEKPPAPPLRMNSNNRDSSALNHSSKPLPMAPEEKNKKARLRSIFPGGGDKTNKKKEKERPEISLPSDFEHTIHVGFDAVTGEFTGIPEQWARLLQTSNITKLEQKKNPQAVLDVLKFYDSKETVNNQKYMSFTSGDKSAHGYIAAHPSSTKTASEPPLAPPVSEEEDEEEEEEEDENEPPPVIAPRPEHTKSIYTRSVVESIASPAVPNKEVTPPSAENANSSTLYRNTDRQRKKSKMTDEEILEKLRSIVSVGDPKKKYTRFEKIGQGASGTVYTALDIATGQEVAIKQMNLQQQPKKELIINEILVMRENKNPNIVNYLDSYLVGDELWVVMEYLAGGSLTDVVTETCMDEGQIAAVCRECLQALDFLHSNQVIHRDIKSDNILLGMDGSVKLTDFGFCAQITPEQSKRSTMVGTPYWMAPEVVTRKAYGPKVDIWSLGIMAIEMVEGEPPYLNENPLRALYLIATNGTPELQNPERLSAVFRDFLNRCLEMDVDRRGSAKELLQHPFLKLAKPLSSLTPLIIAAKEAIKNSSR
Sequence of IGF-1R(h) (human) (P08069 959-1367 limits assumed): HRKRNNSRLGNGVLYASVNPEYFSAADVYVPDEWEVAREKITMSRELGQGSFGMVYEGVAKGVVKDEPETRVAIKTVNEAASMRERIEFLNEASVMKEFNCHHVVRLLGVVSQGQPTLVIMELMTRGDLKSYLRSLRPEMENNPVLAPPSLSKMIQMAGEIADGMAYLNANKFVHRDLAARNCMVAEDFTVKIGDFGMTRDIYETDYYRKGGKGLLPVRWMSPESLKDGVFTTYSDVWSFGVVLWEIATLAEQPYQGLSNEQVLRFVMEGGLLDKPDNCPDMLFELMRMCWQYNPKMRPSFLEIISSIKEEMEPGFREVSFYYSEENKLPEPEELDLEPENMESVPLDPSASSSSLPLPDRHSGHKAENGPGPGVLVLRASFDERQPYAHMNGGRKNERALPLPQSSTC
Sequence of MAPK1(h) (human) (P28482 whole entry): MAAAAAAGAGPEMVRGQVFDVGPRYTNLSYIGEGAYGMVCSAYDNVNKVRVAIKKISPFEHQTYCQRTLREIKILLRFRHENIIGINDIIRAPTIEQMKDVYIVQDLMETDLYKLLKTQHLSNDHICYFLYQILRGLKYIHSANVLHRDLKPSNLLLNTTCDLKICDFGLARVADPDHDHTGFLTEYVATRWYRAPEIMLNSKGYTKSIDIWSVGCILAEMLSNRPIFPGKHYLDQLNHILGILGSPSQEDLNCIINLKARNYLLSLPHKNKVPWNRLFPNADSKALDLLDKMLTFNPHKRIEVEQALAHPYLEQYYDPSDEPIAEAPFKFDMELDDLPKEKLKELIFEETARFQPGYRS
Sequence of Tie2(R849W)(h) (human) (Q02763 771-1124 R849W limits assumed): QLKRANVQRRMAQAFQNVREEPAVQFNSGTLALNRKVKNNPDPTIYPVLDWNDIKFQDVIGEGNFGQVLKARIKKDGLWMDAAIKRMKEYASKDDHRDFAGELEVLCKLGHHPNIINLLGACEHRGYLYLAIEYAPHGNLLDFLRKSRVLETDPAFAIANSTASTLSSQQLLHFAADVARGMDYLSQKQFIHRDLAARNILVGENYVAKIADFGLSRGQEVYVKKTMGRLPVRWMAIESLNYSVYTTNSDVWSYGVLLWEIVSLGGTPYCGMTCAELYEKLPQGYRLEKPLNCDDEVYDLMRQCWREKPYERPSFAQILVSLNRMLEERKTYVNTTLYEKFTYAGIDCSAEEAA

Regarding MMI-0400 (peptide), the % activity at 100 µM with BTK(h) (human) came to 94%; with Bmx(h) (human), 26%; in the assay with CK2α2(h) (human), 96%; with FAK(h) (human) it was 96%; in the assay with GRK5(h) (human) it was 131%; with IGF-1R(h) (human), 90%. The % activity at 100 µM with JNK1α1(h) (human) was 98%; with MAPK1(h) (human), 100%; in the assay with MRCKα(h) (human) it was 97%; in the assay with Met(Y1248D)(h) (human), 31%; in the assay with PAK6(h) (human), 100%; with PKCη(h) (human) it was 98%. In addition, the values for the % activity at 100 µM with TAK1(h) (human), in the assay with Tie2(R849W)(h) (human) and with cKit(V560G)(h) (human) were 177%, 108% and 124%, respectively.
As to MMI-0500 (peptide), the % activity at 100 µM turned out to be 61% in the assay with Abl(M351T)(h) (human); 16% with Abl(T315I)(h) (human); 110% with Aurora-A(h) (human); 18% in the assay with BTK(h) (human); 45% with Bmx(h) (human); 70% with EGFR(T790M)(h) (human). The % activity at 100 µM is 94% in the assay with FAK(h) (human); 49% in the assay with JAK2(h) (human); 359% with Lck(h) (human); 5% in the assay with MRCKα(h) (human); 218% with Met(Y1248D)(h) (human); 125% in the assay with PAK5(h) (human). For the same substance, the % activity at 100 µM with PAR-1Bα(h) (human) was found to be 97%; with PKCη(h) (human) it was 45%; in the assay with c-RAF(h) (human) it was 19%; with cKit(V560G)(h) (human), 198%.
For the substance MMI-0300 (peptide), the % activity at 100 µM with Abl(M351T)(h) (human) turned out to be 90%; in the assay with Abl(T315I)(h) (human), 97%; in the assay with Aurora-A(h) (human), 92%; in the assay with CK1γ2(h) (human), 123%; in the assay with CK1γ3(h) (human), 125%; with EGFR(T790M)(h) (human), 100%. The % activity at 100 µM with JAK2(h) (human) is 133%; with JNK1α1(h) (human), 97%; with Lck(h) (human) it was -2%; with PAK3(h) (human), 140%; with PAK5(h) (human) it was 110%; in the assay with TAK1(h) (human) it was 122%.
